Key:
[1] = carboxylate reductase enzyme activity assay (adipate to adipate semialdehyde); assay type: biochemical; details: purified enzyme enhanced by sfp gene product; 2 mM adipate; room temperature, 20 min; against empty vector control (FIG. 12)
Description: A sequence encoding a HIS-tag was added to the genes from Segniliparus rugosus and Segniliparus rotundus that encode the carboxylate reductases of SEQ ID NOs: 4 and 6, respectively (see FIG. 9), such that N-terminal HIS tagged carboxylate reductases could be produced. Each of the modified genes was cloned into a pET Duet expression vector along with a sfp gene encoding a HIS-tagged phosphopantetheine transferase from Bacillus subtilis, both under the T7 promoter. Each expression vector was transformed into a BL21[DE3] E. coli host and the resulting recombinant E. coli strains were cultivated at 37° C. in a 250 mL shake flask culture containing 50 mL LB media and antibiotic selection pressure, with shaking at 230 rpm. Each culture was induced overnight at 37° C. using an auto-induction media.
The pellet from each induced shake flask culture was harvested via centrifugation. Each pellet was resuspended and lysed via sonication, and the cell debris was separated from the supernatant via centrifugation. […]
Enzyme activity assays (i.e., from adipate to adipate semialdehyde) were performed in triplicate in a buffer composed of a final concentration of 50 mM HEPES buffer (pH=7.5), 2 mM adipate, 10 mM MgCl2, 1 mM ATP and 1 mM NADPH. […] The consumption of NADPH was monitored by absorbance at 340 nm.

[2] = carboxylate reductase enzyme activity assay (adipate semialdehyde to hexanedial); assay type: biochemical; details: purified enzyme enhanced by sfp gene product; 2 mM adipate semialdehyde; room temperature, 20 min; against empty vector control (FIG. 15)
Description: The N-terminal His-tagged carboxylate reductase of SEQ ID NO 6 (see Example 2, Example 3 and FIG. 9) was assayed using adipate semialdehyde as substrate. The enzyme activity assay was performed in triplicate in a buffer composed of a final concentration of 50 mM HEPES buffer (pH=7.5), 2 mM adipate semialdehyde, 10 mM MgCl2, 1 mM ATP and 1 mM NADPH. The enzyme activity assay reaction was initiated by adding purified carboxylate reductase and phosphopantetheine transferase or the empty vector control to the assay buffer containing the adipate semialdehyde and then incubated at room temperature for 20 min. The consumption of NADPH was monitored by absorbance at 340 nm.

B1: SEQ ID NO 6: Segniliparus rotundus carboxylate reductase (Genbank Accession No. ADG98140.1) (protein, listed as Segniliparus rotundus)
chain: MTQSHTQGPQASAAHSRLARRAAELLATDPQAAATLPDPEVVRQATRPGLRLAERVDAILSGYADRPALGQRSFQTVKDPITGRSSVELLPTFDTITYRELRERATAIASDLAHHPQAPAKPGDFLASIGFISVDYVAIDIAGVFAGLTAVPLQTGATLATLTAITAETAPTLFAASIEHLPTAVDAVLATPSVRRLLVFDYRAGSDEDREAVEAAKRKIADAGSSVLVDVLDEVIARGKSAPKAPLPPATDAGDDSLSLLIYTSGSTGTPKGAMYPERNVAHFWGGVWAAAFDEDAAPPVPAINITFLPLSHVASRLSLMPTLARGGLMHFVAKSDLSTLFEDLKLARPTNLFLVPRVVEMLYQHYQSELDRRGVQDGTREAEAVKDDLRTGLLGGRILTAGFGSAPLSAELAGFIESLLQIHLVDGYGSTEAGPVWRDGYLVKPPVTDYKLIDVPELGYFSTDSPHPRGELAIKTQTILPGYYKRPETTAEVFDEDGFYLTGDVVAQIGPEQFAYVDRRKNVLKLSQGEFVTLAKLEAAYSSSPLVRQLFVYGSSERSYLLAVIVPTPDALKKFGVGEAAKAALGESLQKIARDEGLQSYEVPRDFIIETDPFTVENGLLSDARKSLRPKLKEHYGERLEAMYKELADGQANELRDIRRGVQQRPTLETVRRAAAAMLGASAAEIKPDAHFTDLGGDSLSALTFSNFLHDLFEVDVPVGVIVSAANTLGSVAEHIDAQLAGGRARPTFATVHGKGSTTIKASDLTLDKFIDEQTLEAAKHLPKPADPPRTVLLTGANGWLGRFLALEWLERLAPAGGKLITIVRGKDAAQAKARLDAAYESGDPKLAGHYQDLAATTLEVLAGDFSEPRLGLDEATWNRLADEVDFISHPGALVNHVLPYNQLFGPNVAGVAEIIKLAITTRIKPVTYLSTVAVAAGVEPSALDEDGDIRTVSAERSVDEGYANGYGNSKWGGEVLLREAHDRTGLPVRVFRSDMILAHQKYTGQVNATDQFTRLVQSLLATGLAPKSFYELDAQGNRQRAHYDGIPVDFTAESITTLGGDGLEGYRSYNVFNPHRDGVGLDEFVDWLIEAGHPITRIDDYDQWLSRFETSLRGLPESKRQASVLPLLHAFARPGPAVDGSPFRNTVFRTDVQKAKIGAEHDIPHLGKALVLKYADDIKQLGLL
carboxylate reductase activity: acceptance of adipate as substrate (consumption of NADPH, absorbance at 340 nm) [1]: accepted adipate as substrate
carboxylate reductase activity: acceptance of adipate semialdehyde as substrate (consumption of NADPH, absorbance at 340 nm) [2]: accepted adipate semialdehyde as substrate
